Laboratory results from patent US20240026032A1 (Alexion, published 2024).
Blank lines part the entries; values can stand above or below the binder they belong to.

Legend:
[1] = target: T1, Programmed Death 1 (PD-1) Fc chimera (R&D Systems, Catalog # 1086-PD-050) (human, UniProt Q15116 25-167); test: BLI (Octet), PD-1 Fc captured on anti-human Fc tips, TPP-999 at 10 µg/mL in PBS as analyte
T1 construct: Bought reagent; not shown: Fc part of the bought chimera (captured by anti-human Fc tips)
Method: (§1) Final dissociation in PBS was performed in the last step on the Bio-Layer Interferometry (BLI) data.

[2] = target: T1, Programmed Death 1 (PD-1) Fc chimera …; test: BLI (Octet), PD-1 Fc captured on anti-human Fc tips, TPP-1001 at 10 µg/mL in PBS as analyte
Method: as §1

[3] = target: T1, Programmed Death 1 (PD-1) Fc chimera …; test: BLI (Octet Red), TPP-986 loaded on anti-human IgG Fc tips, DLAT 10 µg/mL bound first, then PD-1 Fc 12.5 µg/mL
Method: (§2) Antibodies and antibody fusions were diluted to 16 μg/mL in PBS and loaded onto anti-human IgG Fc tips (ForteBio, Catalog # 18-5064). Human DLAT recombinant protein (ProSpec, Catalog # ENZ-082) was diluted into PBS to 10 μg/mL. […] Finally, a dissociation step in PBS was performed to determine dissociation from the bound antibodies.

[4] = target: T1, Programmed Death 1 (PD-1) Fc chimera …; test: BLI, PD-1 Fc loaded on anti-human IgG tips, fusion as analyte, dissociation in PBS
[5] = target: T1, Programmed Death 1 (PD-1) Fc chimera …; test: BLI (Octet), PD-1 Fc captured on anti-human Fc tips, TPP-995 at 10 µg/mL in PBS as analyte
Method: as §1

[6] = target: T2, Human DLAT recombinant protein (ProSpec, Catalog # ENZ-082) (human, UniProt P10515 87-647, limits assumed); test: BIAcore, AntiFc_TPP992_DLAT, kinetics from single concentration curve (12.5nM DLAT)
T2 construct: also called DLAT antigen; Dihydrolipoamide Acetyltransferase
T2 sequence (looked up): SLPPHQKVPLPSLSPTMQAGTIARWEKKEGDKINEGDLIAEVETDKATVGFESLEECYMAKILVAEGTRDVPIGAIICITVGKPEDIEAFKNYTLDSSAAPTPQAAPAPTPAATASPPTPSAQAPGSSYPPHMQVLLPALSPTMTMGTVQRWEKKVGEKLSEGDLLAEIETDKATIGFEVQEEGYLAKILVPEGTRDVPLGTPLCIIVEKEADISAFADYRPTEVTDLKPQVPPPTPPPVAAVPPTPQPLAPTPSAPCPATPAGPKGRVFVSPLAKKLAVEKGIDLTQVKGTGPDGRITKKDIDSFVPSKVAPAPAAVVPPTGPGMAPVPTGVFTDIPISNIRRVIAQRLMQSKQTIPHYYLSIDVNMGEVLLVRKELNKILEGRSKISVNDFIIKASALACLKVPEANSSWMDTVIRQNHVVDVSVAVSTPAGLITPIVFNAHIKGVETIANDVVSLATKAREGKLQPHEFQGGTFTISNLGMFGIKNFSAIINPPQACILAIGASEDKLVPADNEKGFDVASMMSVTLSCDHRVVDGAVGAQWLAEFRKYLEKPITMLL

[7] = target: T1, Programmed Death 1 (PD-1) Fc chimera …; test: BLI (Octet Red), TPP-992 loaded on anti-human IgG Fc tips, DLAT 10 µg/mL bound first, then PD-1 Fc 12.5 µg/mL
Method: as §2

T1 sequence (Q15116 25-167, change not shown): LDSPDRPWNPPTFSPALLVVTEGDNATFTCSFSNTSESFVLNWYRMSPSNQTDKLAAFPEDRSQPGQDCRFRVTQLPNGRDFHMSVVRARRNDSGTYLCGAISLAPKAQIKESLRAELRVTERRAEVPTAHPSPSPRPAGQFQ

B1: TPP-999 (PD2 with PD-L1 fused to the C-terminus of the light chain) (Fab)
heavy: EVQLVESGGGLVKPGGSLRLSCAASGFTFGSYSMTWVRQAPGKGLEWVSFISTVSTYIYYPDSVKGRFTISRDNAKNSLYLQMNSLRAEDTAVYYCARVSGRGSAARDGEKGTYYYYMDVWGKGTTVTVSSASTKGPSVFPLAPSSKSTSGGTAALGCLVKDYFPEPVTVSWNSGALTSGVHTFPAVLQSSGLYSLSSVVTVPSSSLGTQTYICNVNHKPSNTKVDKRVEPKSC
light: SSELTQDPAVSVALGQTVTITCQGDSLRSYYASWYQQKPGQAPVLVIFGKNNRPSGIPDRFSGSRSGNTASLTITGAQAEDEADYFCDSRDSSANHWVFGGGTKLTVLQPKAAPSVTLFPPSSEELQANKATLVCLISDFYPGAVTVAWKADSSPVKAGVETTTPSKQSNNKYAASSYLSLTPEQWKSHKSYSCQVTHEGSTVEKTVAPTECSGGSSRSSSSGGGGSGGGGFTVTVPKDLYVVEYGSNMTIECKFPVEKQLDLAALIVYWEMEDKNIIQFVHGEEDLKVQHSSYRQRARLLKDQLSLGNAALQITDVKLQDAGVYRCMISYGGADYKRITVKVNA
notes: Fab fusion with the human PD-L1 variable-like domain
binding result [1]: binds

B2: TPP-1001 (PD2 with PD-L1 fused to the N-terminus of the light chain) (Fab)
heavy: EVQLVESGGGLVKPGGSLRLSCAASGFTFGSYSMTWVRQAPGKGLEWVSFISTVSTYIYYPDSVKGRFTISRDNAKNSLYLQMNSLRAEDTAVYYCARVSGRGSAARDGEKGTYYYYMDVWGKGTTVTVSSASTKGPSVFPLAPSSKSTSGGTAALGCLVKDYFPEPVTVSWNSGALTSGVHTFPAVLQSSGLYSLSSVVTVPSSSLGTQTYICNVNHKPSNTKVDKRVEPKSC
light: FTVTVPKDLYVVEYGSNMTIECKFPVEKQLDLAALIVYWEMEDKNIIQFVHGEEDLKVQHSSYRQRARLLKDQLSLGNAALQITDVKLQDAGVYRCMISYGGADYKRITVKVNAGGSSRSSSSGGGGSGGGGSSELTQDPAVSVALGQTVTITCQGDSLRSYYASWYQQKPGQAPVLVIFGKNNRPSGIPDRFSGSRSGNTASLTITGAQAEDEADYFCDSRDSSANHWVFGGGTKLTVLQPKAAPSVTLFPPSSEELQANKATLVCLISDFYPGAVTVAWKADSSPVKAGVETTTPSKQSNNKYAASSYLSLTPEQWKSHKSYSCQVTHEGSTVEKTVAPTECS
notes: as for B1
binding result [2]: binds

B3: TPP-986, human IgG2/4 PD5 antibody, N-terminus PD-L1 HC (antibody)
heavy: FTVTVPKDLYVVEYGSNMTIECKFPVEKQLDLAALIVYWEMEDKNIIQFVHGEEDLKVQHSSYRQRARLLKDQLSLGNAALQITDVKLQDAGVYRCMISYGGADYKRITVKVNAGGSSRSSSSGGGGSGGGGQLQLQESGPGLVKPSETLSLTCIVSGGSISRNSYYWGWIRQPPGKGLEWIGSIVYSGSTYHQPSLKSRVTIFLDTSKNQFFLKLTSVTAADTAVYYCARGTRATTWPPPIGYWGQGTLVTVSSASTKGPSVFPLAPCSRSTSESTAALGCLVKDYFPEPVTVSWNSGALTSGVHTFPAVLQSSGLYSLSSVVTVPSSNFGTQTYTCNVDHKPSNTKVDKTVERKCCVECPPCPAPPVAGPSVFLFPPKPKDTLMISRTPEVTCVVVDVSQEDPEVQFNWYVDGVEVHNAKTKPREEQFNSTYRVVSVLTVLHQDWLNGKEYKCKVSNKGLPSSIEKTISKAKGQPREPQVYTLPPSQEEMTKNQVSLTCLVKGFYPSDIAVEWESNGQPENNYKTTPPVLDSDGSFFLYSRLTVDKSRWQEGNVFSCSVMHEALHNHYTQKSLSLSLGK
light: QSVLTQPPSVSAAPGQKVTVSCFGSSSNIGNYFASWYQQLPGAAPRLLIYGNNERPSGIPDRFSGSKSGTSATLVITGLQTGDEAAYYCATWDSSLSAVVFGGGTKLTVLGQPKANPTVTLFPPSSEELQANKATLVCLISDFYPGAVTVAWKADGSPVKAGVETTKPSKQSNNKYAASSYLSLTPEQWKSHRSYSCQVTHEGSTVEKTVAPTECS
notes: Antibody fused with the human PD-L1 variable-like domain
binding result [3]: binds

B4: TPP-1986 (murine IgG1 Fc Silent, N-terminus_PDL1_LC_PD5) (antibody)
heavy: QLQLQESGPGLVKPSETLSLTCIVSGGSISRNSYYWGWIRQPPGKGLEWIGSIVYSGSTYHQPSLKSRVTIFLDTSKNQFFLKLTSVTAADTAVYYCARGTRATTWPPPIGYWGQGTLVTVSSAKTTPPSVYPLAPGSAAQTNSMVTLGCLVKGYFPEPVTVTWNSGSLSSGVHTFPAVLQSDLYTLSSSVTVPSSTWPSQTVTCNVAHPASSTKVDKKIVPRDCGCKPCICTVPEQSSVFIFPPKPKDVLMISLTPKVTCVVVDISKDDPEVQFSWFVDDVEVHTAQTKPREEQINSTFRSVSELPILHQDWLNGKEFKCRVNSAAFPAPIEKTISKTKGRPKAPQVYTIPPPKEQMAKDKVSLTCMITNFFPEDITVEWQWNGQPAENYKNTQPIMDTDGSYFVYSKLNVQKSNWEAGNTFTCSVLHEGLHNHHTEKSLSHSPGK
light: FTVTVPKDLYVVEYGSNMTIECKFPVEKQLDLAALIVYWEMEDKNIIQFVHGEEDLKVQHSSYRQRARLLKDQLSLGNAALQITDVKLQDAGVYRCMISYGGADYKRITVKVNAGGSSRSSSSGGGGSGGGGQSVLTQPPSVSAAPGQKVTVSCFGSSSNIGNYFASWYQQLPGAAPRLLIYGNNERPSGIPDRFSGSKSGTSATLVITGLQTGDEAAYYCATWDSSLSAVVFGGGTKLTVLGQPKSSPSVTLFPPSSEELETNKATLVCTITDFYPGVVTVDWKVDGTPVTQGMETTQPSKQSNNKYMASSYLTLTARAWERHSSYSCQVTHEGHTVEKSLSRADCS
notes: also called huPDL1; Human PDL1_Mouse PD5
binding result [4]: binds

B5: TPP-995 (PD2 with PD-L1 fused to the N-terminus of the heavy chain) (Fab)
heavy: FTVTVPKDLYVVEYGSNMTIECKFPVEKQLDLAALIVYWEMEDKNIIQFVHGEEDLKVQHSSYRQRARLLKDQLSLGNAALQITDVKLQDAGVYRCMISYGGADYKRITVKVNAGGSSRSSSSGGGGSGGGGEVQLVESGGGLVKPGGSLRLSCAASGFTFGSYSMTWVRQAPGKGLEWVSFISTVSTYIYYPDSVKGRFTISRDNAKNSLYLQMNSLRAEDTAVYYCARVSGRGSAARDGEKGTYYYYMDVWGKGTTVTVSSASTKGPSVFPLAPSSKSTSGGTAALGCLVKDYFPEPVTVSWNSGALTSGVHTFPAVLQSSGLYSLSSVVTVPSSSLGTQTYICNVNHKPSNTKVDKRVEPKSC
light: SSELTQDPAVSVALGQTVTITCQGDSLRSYYASWYQQKPGQAPVLVIFGKNNRPSGIPDRFSGSRSGNTASLTITGAQAEDEADYFCDSRDSSANHWVFGGGTKLTVLQPKAAPSVTLFPPSSEELQANKATLVCLISDFYPGAVTVAWKADSSPVKAGVETTTPSKQSNNKYAASSYLSLTPEQWKSHKSYSCQVTHEGSTVEKTVAPTECS
notes: as for B1
binding result [5]: binds

Kd [6]: 0.184 nM
koff [6]: 0.000238 s⁻¹
kon [6]: 1.29e+06 M⁻¹ s⁻¹
B6: TPP-992, human IgG2/4 PD5 antibody, N-terminus PD-L1 LC (antibody)
heavy: QLQLQESGPGLVKPSETLSLTCIVSGGSISRNSYYWGWIRQPPGKGLEWIGSIVYSGSTYHQPSLKSRVTIFLDTSKNQFFLKLTSVTAADTAVYYCARGTRATTWPPPIGYWGQGTLVTVSSASTKGPSVFPLAPCSRSTSESTAALGCLVKDYFPEPVTVSWNSGALTSGVHTFPAVLQSSGLYSLSSVVTVPSSNFGTQTYTCNVDHKPSNTKVDKTVERKCCVECPPCPAPPVAGPSVFLFPPKPKDTLMISRTPEVTCVVVDVSQEDPEVQFNWYVDGVEVHNAKTKPREEQFNSTYRVVSVLTVLHQDWLNGKEYKCKVSNKGLPSSIEKTISKAKGQPREPQVYTLPPSQEEMTKNQVSLTCLVKGFYPSDIAVEWESNGQPENNYKTTPPVLDSDGSFFLYSRLTVDKSRWQEGNVFSCSVMHEALHNHYTQKSLSLSLGK
light: FTVTVPKDLYVVEYGSNMTIECKFPVEKQLDLAALIVYWEMEDKNIIQFVHGEEDLKVQHSSYRQRARLLKDQLSLGNAALQITDVKLQDAGVYRCMISYGGADYKRITVKVNAGGSSRSSSSGGGGSGGGGQSVLTQPPSVSAAPGQKVTVSCFGSSSNIGNYFASWYQQLPGAAPRLLIYGNNERPSGIPDRFSGSKSGTSATLVITGLQTGDEAAYYCATWDSSLSAVVFGGGTKLTVLGQPKANPTVTLFPPSSEELQANKATLVCLISDFYPGAVTVAWKADGSPVKAGVETTKPSKQSNNKYAASSYLSLTPEQWKSHRSYSCQVTHEGSTVEKTVAPTECS
notes: as for B3
binding result [7]: binds
